These results are taken from paper PMC9044032, “OsbZIP47 Is an Integrator for Meristem Regulators During Rice Plant Growth and Development” (Frontiers in Plant Science, 2022).

The target in data set [1] is T1, Trx-His-OsbZIP47 FL (Oryza sativa) (UniProt Q5Z6N9).
T1 sequence: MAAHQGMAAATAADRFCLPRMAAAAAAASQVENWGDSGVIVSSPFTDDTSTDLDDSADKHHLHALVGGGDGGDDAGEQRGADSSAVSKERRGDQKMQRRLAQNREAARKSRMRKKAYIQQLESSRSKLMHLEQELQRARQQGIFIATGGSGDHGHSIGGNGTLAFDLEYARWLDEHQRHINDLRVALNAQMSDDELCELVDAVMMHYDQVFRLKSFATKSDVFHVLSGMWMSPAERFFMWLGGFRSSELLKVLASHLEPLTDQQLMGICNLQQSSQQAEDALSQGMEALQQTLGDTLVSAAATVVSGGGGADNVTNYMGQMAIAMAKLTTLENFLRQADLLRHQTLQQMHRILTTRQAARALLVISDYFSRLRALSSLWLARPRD
The data set is described as follows: MST. The conditions noted are these: MST: 10 mM HEPES-KOH pH 8.0, 50 mM NaCl, 0.5% Tween-20, 0.5 mM EDTA, 1 mM MgCl2, 10% glycerol, 80 nM protein, DNA 3.05 nM-100 uM, temperature not stated, EMSA: ….

Data set [2] concerns the molecule itself. The data set is described as follows: non-reducing SDS-PAGE; purified protein treated with 2 mM diamide, with 20 mM DTT, or with 2 mM diamide followed by 20 mM DTT; non-reducing 10% SDS-PAGE.

Consider “CAGCTGGCCCTGACGTCAGCAACCGG (double strand) [OsFCP1 locus EMSA-371]”, for which the Kd in data set [1] (oxidized, 1 mM oxidized glutathione) is 2160 nM; in data set [1] (reduced, 20 mM DTT) it was 815 nM.

B1: Thioredoxin-His-tagged OsbZIP47FL (natural protein, rice (Oryza sativa), UniProt Q5Z6N9 1-385, looked up)
chain: T1 sequence
notes: full-length CDS, amino acid 1 to 385; also called Trx-His-OsbZIP47 FL; Trx-His OsbZIP47; source: E. coli Rosetta (DE3), pET32a, purified
Turning to B1, the binding result in data set [2] is given as “binds”.
